Measurements reported in patent publication US20180155451A1 (published 2018).

T1: FcγRIIa R (human, UniProt P12318 34-217)
T1 construct: extracellular domain; also called FcgRIIa R; FcγRIIa type R
T1 sequence (looked up): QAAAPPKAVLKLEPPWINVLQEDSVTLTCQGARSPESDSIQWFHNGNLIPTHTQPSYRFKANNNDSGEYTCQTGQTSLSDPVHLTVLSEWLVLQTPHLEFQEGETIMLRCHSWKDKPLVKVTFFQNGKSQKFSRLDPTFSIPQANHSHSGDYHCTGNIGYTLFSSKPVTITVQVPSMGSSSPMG

T2: FcγRIIb (human, UniProt P31994 43-217)
T2 construct: extracellular domain; also called FcgRIIb
T2 sequence (looked up): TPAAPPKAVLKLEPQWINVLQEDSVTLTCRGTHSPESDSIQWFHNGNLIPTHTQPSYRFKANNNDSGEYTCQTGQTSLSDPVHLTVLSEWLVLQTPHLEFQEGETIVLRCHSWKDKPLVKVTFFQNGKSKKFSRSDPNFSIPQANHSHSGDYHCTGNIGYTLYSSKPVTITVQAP


Tests used:
[1] = biological target: T1, FcγRIIa R; experiment: He/Con_2aR divided by He/Con_2b (FcγRIIa R over FcγRIIb); SPR (Biacore)
[2] = biological target: T2, FcγRIIb; experiment: SPR (Biacore), captured antibody, FcγR analyte; binding relative to GpH7-A5/GpH7-B3/GpL16-k0 = 100
[3] = biological target: T1, FcγRIIa R; experiment: as above

Row | Binder | IIaR/IIb (He_2aR/2b) [1] [ratio] | He/Con_2b (IIb binding) [2] [control=100] | He/Con_2aR (IIaR binding) [3] [control=100]
1 | GpH7-A5/GpH7-B3 variant P329_01G/GpL16-k0 (antibody, human IgG1, kappa, He Ab; IgG1; mutation in one H chain only) heavy 1: not shown heavy 2: not shown light: DIVMTQSPLSLPVTPGEPASISCQASESLVHSNRNTYLHWYLQKPGQSPQLLIYKVSNRFSGVPDRFSGSGSGTDFTLKISRVEAEDVGVYYCSQNTHVPPTFGQGTKVEIERTVAAPSVFIFPPSDEQLKSGTASVVCLLNNFYPREAKVQWKVDNALQSGNSQESVTEQDSKDSTYSLSSTLTLSKADYEKHKVYACEVTHQGLSSPVTKSFNRGEC | 1.32 | 41.7 | 55
2 | GpH7-A5/GpH7-B3 variant A330_03V/GpL16-k0 (antibody, human IgG1, kappa, He Ab; IgG1; mutation in one H chain only) heavy 1: not shown heavy 2: not shown light: DIVMTQSPLSLPVTPGEPASISCQASESLVHSNRNTYLHWYLQKPGQSPQLLIYKVSNRFSGVPDRFSGSGSGTDFTLKISRVEAEDVGVYYCSQNTHVPPTFGQGTKVEIERTVAAPSVFIFPPSDEQLKSGTASVVCLLNNFYPREAKVQWKVDNALQSGNSQESVTEQDSKDSTYSLSSTLTLSKADYEKHKVYACEVTHQGLSSPVTKSFNRGEC | 1.43 | 52.4 | 74.9
3 | GpH7-A5/GpH7-B3 variant A330_14T/GpL16-k0 (antibody, human IgG1, kappa, He Ab; IgG1; mutation in one H chain only) heavy 1: not shown heavy 2: not shown light: DIVMTQSPLSLPVTPGEPASISCQASESLVHSNRNTYLHWYLQKPGQSPQLLIYKVSNRFSGVPDRFSGSGSGTDFTLKISRVEAEDVGVYYCSQNTHVPPTFGQGTKVEIERTVAAPSVFIFPPSDEQLKSGTASVVCLLNNFYPREAKVQWKVDNALQSGNSQESVTEQDSKDSTYSLSSTLTLSKADYEKHKVYACEVTHQGLSSPVTKSFNRGEC | 1.23 | 77.9 | 95.5
4 | GpH7-A5/GpH7-B3 variant N325_11K/GpL16-k0 (antibody, human IgG1, kappa, He Ab; IgG1; mutation in one H chain only) heavy 1: not shown heavy 2: not shown light: DIVMTQSPLSLPVTPGEPASISCQASESLVHSNRNTYLHWYLQKPGQSPQLLIYKVSNRFSGVPDRFSGSGSGTDFTLKISRVEAEDVGVYYCSQNTHVPPTFGQGTKVEIERTVAAPSVFIFPPSDEQLKSGTASVVCLLNNFYPREAKVQWKVDNALQSGNSQESVTEQDSKDSTYSLSSTLTLSKADYEKHKVYACEVTHQGLSSPVTKSFNRGEC | 1.57 | 10.4 | 16.2
5 | GpH7-A5/GpH7-B3 variant A330_18N/GpL16-k0 (antibody, human IgG1, kappa, He Ab; IgG1; mutation in one H chain only) heavy 1: not shown heavy 2: not shown light: DIVMTQSPLSLPVTPGEPASISCQASESLVHSNRNTYLHWYLQKPGQSPQLLIYKVSNRFSGVPDRFSGSGSGTDFTLKISRVEAEDVGVYYCSQNTHVPPTFGQGTKVEIERTVAAPSVFIFPPSDEQLKSGTASVVCLLNNFYPREAKVQWKVDNALQSGNSQESVTEQDSKDSTYSLSSTLTLSKADYEKHKVYACEVTHQGLSSPVTKSFNRGEC | 1.27 | 63.7 | 81.1
6 | GpH7-A5/GpH7-B3 variant A330_09D/GpL16-k0 (antibody, human IgG1, kappa, He Ab; IgG1; mutation in one H chain only) heavy 1: not shown heavy 2: not shown light: DIVMTQSPLSLPVTPGEPASISCQASESLVHSNRNTYLHWYLQKPGQSPQLLIYKVSNRFSGVPDRFSGSGSGTDFTLKISRVEAEDVGVYYCSQNTHVPPTFGQGTKVEIERTVAAPSVFIFPPSDEQLKSGTASVVCLLNNFYPREAKVQWKVDNALQSGNSQESVTEQDSKDSTYSLSSTLTLSKADYEKHKVYACEVTHQGLSSPVTKSFNRGEC | 1.27 | 55.6 | 70.9
7 | GpH7-A5/GpH7-B3 variant N325_16H/GpL16-k0 (antibody, human IgG1, kappa, He Ab; IgG1; mutation in one H chain only) heavy 1: not shown heavy 2: not shown light: DIVMTQSPLSLPVTPGEPASISCQASESLVHSNRNTYLHWYLQKPGQSPQLLIYKVSNRFSGVPDRFSGSGSGTDFTLKISRVEAEDVGVYYCSQNTHVPPTFGQGTKVEIERTVAAPSVFIFPPSDEQLKSGTASVVCLLNNFYPREAKVQWKVDNALQSGNSQESVTEQDSKDSTYSLSSTLTLSKADYEKHKVYACEVTHQGLSSPVTKSFNRGEC | 1.27 | 70.1 | 89
8 | GpH7-A5/GpH7-B3 variant N325_02A/GpL16-k0 (antibody, human IgG1, kappa, He Ab; IgG1; mutation in one H chain only) heavy 1: not shown heavy 2: not shown light: DIVMTQSPLSLPVTPGEPASISCQASESLVHSNRNTYLHWYLQKPGQSPQLLIYKVSNRFSGVPDRFSGSGSGTDFTLKISRVEAEDVGVYYCSQNTHVPPTFGQGTKVEIERTVAAPSVFIFPPSDEQLKSGTASVVCLLNNFYPREAKVQWKVDNALQSGNSQESVTEQDSKDSTYSLSSTLTLSKADYEKHKVYACEVTHQGLSSPVTKSFNRGEC | 1.31 | 64.4 | 84.1
9 | GpH7-A5/GpH7-B3 variant I336_20W/GpL16-k0 (antibody, human IgG1, kappa, He Ab; IgG1; mutation in one H chain only) heavy 1: not shown heavy 2: not shown light: DIVMTQSPLSLPVTPGEPASISCQASESLVHSNRNTYLHWYLQKPGQSPQLLIYKVSNRFSGVPDRFSGSGSGTDFTLKISRVEAEDVGVYYCSQNTHVPPTFGQGTKVEIERTVAAPSVFIFPPSDEQLKSGTASVVCLLNNFYPREAKVQWKVDNALQSGNSQESVTEQDSKDSTYSLSSTLTLSKADYEKHKVYACEVTHQGLSSPVTKSFNRGEC | 1.5 | 20.3 | 30.3
10 | GpH7-A5/GpH7-B3 variant A330_07I/GpL16-k0 (antibody, human IgG1, kappa, He Ab; IgG1; mutation in one H chain only) heavy 1: not shown heavy 2: not shown light: DIVMTQSPLSLPVTPGEPASISCQASESLVHSNRNTYLHWYLQKPGQSPQLLIYKVSNRFSGVPDRFSGSGSGTDFTLKISRVEAEDVGVYYCSQNTHVPPTFGQGTKVEIERTVAAPSVFIFPPSDEQLKSGTASVVCLLNNFYPREAKVQWKVDNALQSGNSQESVTEQDSKDSTYSLSSTLTLSKADYEKHKVYACEVTHQGLSSPVTKSFNRGEC | 1.27 | 67.1 | 85.6
11 | GpH7-A5/GpH7-B3 variant A330_10E/GpL16-k0 (antibody, human IgG1, kappa, He Ab; IgG1; mutation in one H chain only) heavy 1: not shown heavy 2: not shown light: DIVMTQSPLSLPVTPGEPASISCQASESLVHSNRNTYLHWYLQKPGQSPQLLIYKVSNRFSGVPDRFSGSGSGTDFTLKISRVEAEDVGVYYCSQNTHVPPTFGQGTKVEIERTVAAPSVFIFPPSDEQLKSGTASVVCLLNNFYPREAKVQWKVDNALQSGNSQESVTEQDSKDSTYSLSSTLTLSKADYEKHKVYACEVTHQGLSSPVTKSFNRGEC | 1.23 | 70.1 | 86.6
12 | GpH7-A5/GpH7-B3 variant N325_12R/GpL16-k0 (antibody, human IgG1, kappa, He Ab; IgG1; mutation in one H chain only) heavy 1: not shown heavy 2: not shown light: DIVMTQSPLSLPVTPGEPASISCQASESLVHSNRNTYLHWYLQKPGQSPQLLIYKVSNRFSGVPDRFSGSGSGTDFTLKISRVEAEDVGVYYCSQNTHVPPTFGQGTKVEIERTVAAPSVFIFPPSDEQLKSGTASVVCLLNNFYPREAKVQWKVDNALQSGNSQESVTEQDSKDSTYSLSSTLTLSKADYEKHKVYACEVTHQGLSSPVTKSFNRGEC | 1.37 | 19.1 | 26.1
13 | GpH7-A5/GpH7-B3 variant A330_12R/GpL16-k0 (antibody, human IgG1, kappa, He Ab; IgG1; mutation in one H chain only) heavy 1: not shown heavy 2: not shown light: DIVMTQSPLSLPVTPGEPASISCQASESLVHSNRNTYLHWYLQKPGQSPQLLIYKVSNRFSGVPDRFSGSGSGTDFTLKISRVEAEDVGVYYCSQNTHVPPTFGQGTKVEIERTVAAPSVFIFPPSDEQLKSGTASVVCLLNNFYPREAKVQWKVDNALQSGNSQESVTEQDSKDSTYSLSSTLTLSKADYEKHKVYACEVTHQGLSSPVTKSFNRGEC | 1.22 | 84.8 | 104
14 | GpH7-A5/GpH7-B3 variant A330_08L/GpL16-k0 (antibody, human IgG1, kappa, He Ab; IgG1; mutation in one H chain only) heavy 1: not shown heavy 2: not shown light: DIVMTQSPLSLPVTPGEPASISCQASESLVHSNRNTYLHWYLQKPGQSPQLLIYKVSNRFSGVPDRFSGSGSGTDFTLKISRVEAEDVGVYYCSQNTHVPPTFGQGTKVEIERTVAAPSVFIFPPSDEQLKSGTASVVCLLNNFYPREAKVQWKVDNALQSGNSQESVTEQDSKDSTYSLSSTLTLSKADYEKHKVYACEVTHQGLSSPVTKSFNRGEC | 1.26 | 70.5 | 88.8
15 | GpH7-A5/GpH7-B3 variant A330_13S/GpL16-k0 (antibody, human IgG1, kappa, He Ab; IgG1; mutation in one H chain only) heavy 1: not shown heavy 2: not shown light: DIVMTQSPLSLPVTPGEPASISCQASESLVHSNRNTYLHWYLQKPGQSPQLLIYKVSNRFSGVPDRFSGSGSGTDFTLKISRVEAEDVGVYYCSQNTHVPPTFGQGTKVEIERTVAAPSVFIFPPSDEQLKSGTASVVCLLNNFYPREAKVQWKVDNALQSGNSQESVTEQDSKDSTYSLSSTLTLSKADYEKHKVYACEVTHQGLSSPVTKSFNRGEC | 1.47 | 41.3 | 60.8
16 | GpH7-A5/GpH7-B3 variant N325_05P/GpL16-k0 (antibody, human IgG1, kappa, He Ab; IgG1; mutation in one H chain only) heavy 1: not shown heavy 2: not shown light: DIVMTQSPLSLPVTPGEPASISCQASESLVHSNRNTYLHWYLQKPGQSPQLLIYKVSNRFSGVPDRFSGSGSGTDFTLKISRVEAEDVGVYYCSQNTHVPPTFGQGTKVEIERTVAAPSVFIFPPSDEQLKSGTASVVCLLNNFYPREAKVQWKVDNALQSGNSQESVTEQDSKDSTYSLSSTLTLSKADYEKHKVYACEVTHQGLSSPVTKSFNRGEC | 1.63 | 26 | 42.2
